Laboratory results as given in the supplement of paper PMC12042874.
± gives the uncertainty stated by the source.

Assay: amyloid nucleation score (Sup35N fusion, yeast selection) (log enrichment); library NNK1; higher = more nucleation; inactive = no reads after selection
How it was run: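 Peptides of 20 random codons, each fused to Sup35N, were expressed in psi-negative yeast. Cells were induced with 100 μM copper sulfate for 24 hours and grown 7 days at 30°C on medium lacking adenine and uracil, and plasmid inserts before and after selection were Illumina-sequenced. Nucleation scores are DiMSum log enrichments of output over input reads, centred on the mode score of non-aggregating sequences, and sequences under 100 input reads were excluded.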
In the case of RFRVCCNRSKRGGYGPNVER, the amyloid nucleation score is reported as -0.363 ± 0.67. In the case of RFRVVNSCSTKPLLNEKLFG, the amyloid nucleation score is reported as “inactive”. RFSMFRQFRSDLGCFPIMVP showed an amyloid nucleation score of 0.254 ± 0.72. For RFYIMYLSGCAKTSFCGFVS, the amyloid nucleation score was 6.4 ± 0.079. RGCMAQDSNLYKHVSARTGD showed an amyloid nucleation score of -0.179 ± 1.6. Work on RGDLCGSRIFLWFALPVN yielded an amyloid nucleation score of -0.726 ± 0.62. With RGGTMGYILDNKCQNFVGTW the amyloid nucleation score was “inactive”. RGHAFLFVLYTFQLKAYAS showed an amyloid nucleation score of -0.033 ± 0.3. For RGILLSPSLLVYRLTT, the amyloid nucleation score was -0.096 ± 1.2. Work on RGINSFLMSFALCWAHWRGV yielded an amyloid nucleation score of -0.072 ± 0.37. RGLSNA showed an amyloid nucleation score of 0.664 ± 0.48. In the case of RGNANIVEDSLFVVIGGRKV, the amyloid nucleation score is reported as 4.25 ± 0.074. RGSKRTVKLNSGVRVKSYDW showed an amyloid nucleation score of 0.373 ± 1.4. In the case of RGVARWRCGNKICNA, the amyloid nucleation score is reported as 0.078 ± 0.47. In the case of RGVHVHRFVLLAMMKFQFGS, the amyloid nucleation score is reported as “inactive”. Substance RGVLFVAINW has an amyloid nucleation score of 2.47 ± 0.31. Work on RGYLAWLSGDQA yielded an amyloid nucleation score of 1.68 ± 0.52. For RGYQTSGLT, the amyloid nucleation score was -0.756 ± 2.4. RHFLFLLWARPTTCSIFMVG showed an amyloid nucleation score of -0.454 ± 0.77. For RHLMLVKYVFGSRELGL, the amyloid nucleation score was 0.169 ± 0.25. RHLRVTFNSLSWRKMKAGVV showed an amyloid nucleation score of -0.314 ± 0.86. In the case of RHTGPIMLSWDAKGRGK, the amyloid nucleation score is reported as 0.622 ± 0.44. Substance RHYSARQWQIWGFCDLPHSR has an amyloid nucleation score of 0.086 ± 0.66. For RICKGIAGKSENCNTLYNSS, the amyloid nucleation score was “inactive”. For RIIGHLKFIMIRNNVSLCDM, the amyloid nucleation score was -0.146 ± 0.5. RIKHERLIVFVMNLDINQ showed an amyloid nucleation score of 4.3 ± 0.096. In the case of RILSDDDVARQNGNDDNLYP, the amyloid nucleation score is reported as 3.22 ± 0.092. RINLVSVYDRSNDKVSIPS showed an amyloid nucleation score of 0.454 ± 0.55. With RIRTIPFAPRNESPRCIGKF the amyloid nucleation score was -1.5 ± 0.86. Work on RIVISCRFEYGLGVGSSGVP yielded an amyloid nucleation score of 0.156 ± 1.6. For RIVRRFAGLISSI, the amyloid nucleation score was “inactive”. With RKASWRWMSSMSNVGWTCPN the amyloid nucleation score was 4.67 ± 0.12. Work on RKESDNDFSTCVTWQNRHPD yielded an amyloid nucleation score of 0.529 ± 0.74. Substance RKGSMWFCRCLVRMRHRALP has an amyloid nucleation score of -0.295 ± 0.76. Work on RKLDASHYMPVSDLEFCCMC yielded an amyloid nucleation score of 6.752 ± 0.048. With RKLFAY the amyloid nucleation score was “inactive”. RKRRVSSLPEMGHSGSEYIG gave an amyloid nucleation score of 0.412 ± 0.67. For RKWRVCDKND, the amyloid nucleation score was -0.491 ± 0.86. RLARWPEPLIRCFAS gave an amyloid nucleation score of 0.594 ± 0.55. With RLAVLEELMVRICIVIRNFW the amyloid nucleation score was -0.328 ± 0.69. RLAWPRKSSSCN showed an amyloid nucleation score of 0.774 ± 0.45. RLHAVTSLCR gave an amyloid nucleation score of 5.42 ± 0.1. In the case of RLIIME, the amyloid nucleation score is reported as “inactive”. With RLLASGFLSTRFR the amyloid nucleation score was 0.143 ± 0.86. RLLRFGENFDCWKYLNVALE showed an amyloid nucleation score of 0.004 ± 0.42. For RLTCFRGLGNIYIELINMVN, the amyloid nucleation score was -0.376 ± 0.23. For RLTVSGVTLGSVTHAFCGAP, the amyloid nucleation score was 0.267 ± 0.67. Work on RLTYSSCSGNLWYFRFKSVE yielded an amyloid nucleation score of 0.415 ± 0.67. For RLVEQFRGMLLWY, the amyloid nucleation score was -0.673 ± 0.64. RLVIRSGTNAGMVGRSWGGC showed an amyloid nucleation score of -0.151 ± 0.3. Work on RLVSMEVCCTARLPCPYLLK yielded an amyloid nucleation score of 2.09 ± 0.25. Work on RLYPL yielded an amyloid nucleation score of 0.908 ± 0.34. With RLYPQYLNFKVCKFGSLDGG the amyloid nucleation score was -0.836 ± 0.31. For RLYWSCCDRVDTFLCVF, the amyloid nucleation score was 4.43 ± 0.099. Substance RMAHVKHFL has an amyloid nucleation score of 4.52 ± 0.082. In the case of RMAWMEGRPGDRMSRYGTSC, the amyloid nucleation score is reported as “inactive”. RMDSGIGDRSTGGDRTNGMW gave an amyloid nucleation score of -0.546 ± 0.53. Substance RMERGKNLQMWEGQEVGAEN has an amyloid nucleation score of -1.19 ± 0.77. Work on RMFEVARSSKRSLFHSILET yielded an amyloid nucleation score of 0.109 ± 0.26. RMFNQAI showed an amyloid nucleation score of -0.394 ± 0.74. Work on RMGVA yielded an amyloid nucleation score of 0.644 ± 0.92. Work on RMIKNYSIS yielded an amyloid nucleation score of 0.89 ± 0.55. Work on RMRRLCVSEGRDLSGECCYM yielded an amyloid nucleation score of 0.544 ± 0.3. Substance RMSSIKYVMWGHFAIVSTKV has an amyloid nucleation score of 1.99 ± 0.43. In the case of RMVLPVSNLFCAFPGTGGGS, the amyloid nucleation score is reported as -0.577 ± 0.32. With RNCNWDYEVNIKWRVRVEFL the amyloid nucleation score was “inactive”. Substance RNGCKFTKLFETVRFKEEGF has an amyloid nucleation score of -1.03 ± 0.48. For RNLLNFFKISDTSTALDLLY, the amyloid nucleation score was -0.728 ± 0.52. Work on RNPTFFAMCSMCWLSTT yielded an amyloid nucleation score of 0.852 ± 0.97.
